Columns and labels:
[1] = test system: cathepsin B; conditions: room temperature, up to 96 hours
[2] = test system: HPAC tumor-bearing SCID mice; conditions: mouse, in vivo

Substance	cleaved bond [1]	increase of tumor accumulation from 24 h to 72 h post-injection [2] [%]	lower liver retention compared to control (177Lu-MAC0) [2] [fold]
DO3A(tBu)3-G- (D)S(tBu)-(D)S(tBu)-G- G-G-F	G-G, 24 h	–	–
X = GSS, Y = PMGLP [177Lu-MAC2]	–	113	2.1

Reference: PMC3665621 (Nuclear medicine and biology, 2013)
